We go through 167 variants from the RNAGym collection of RNA variant scans (doi:10.7554/elife.90254).

To fix the notation:
B1: OR4K15 (parent)
chain: GUUAACGGUCAUAGGCCAUGGAAACUAGGAGCACCAUUUCGCUGCCAGUGAAGAAAUGAACAAAGAAAAUCUGGGCCAGGCAGGCAUCAAAAGAAAUAGUCUUGCGCUCAACCAGAAAGUCUGUAAUCAUUUUAAGGGUA

The variants in this data set derive from B1. As to the kind of experiment: self-cleavage, relative activity (ratio to wild type); higher = more cleavage; in vitro, sequencing; the parent is a self-cleaving ribozyme.
Take A27G A47U: the self-cleavage is 0.95.
The same measure for A22U A96G: 1.57.
With A11G G137A the figure was 0.53; with A62G A63G, 1.21; with C71U U130C, 0.13.
With U87C A90G the figure was 0.3; with U9A A125G, 0.76.
For the variant C45U, the self-cleavage was 1.72.
The same measure for U131C A135U: 0.87.
With A54G A92G the figure was 1.37; with A30C, 1.6.
The same measure for U26C U103C: 0.69; for A23U U131C: 1.02.
As for U19C A118U, the self-cleavage is 0.77.
With A24G U103C the figure was 0.32; with G65A U132C, 0.58; with A22C A94U, 2.06.
With A22U A94G the figure was 1.84.
Regarding U12C C105U, the self-cleavage is 0.23.
With U19C the figure was 1.17; with A33U C35U, 1.93.
The same measure for A51U A64G: 1.28; for G8A U9C: 1.16; for U108C U124C: 0.
With A11C A125G the figure was 0.5; with G41C A64U, 2.26.
As for A24C A118C, the self-cleavage is 0.84.
The same measure for A47G U100G: 2.14; for A68G A90G: 1.17; for A33C U102C: 2.22.
In the case of U39C A59G, the self-cleavage is 1.51.
Regarding G123A A126G, the self-cleavage is 1.34.
A92G A96U: the self-cleavage was determined as 1.84.
The same measure for A86U U130C: 1.44; for A63U A126G: 1.31; for G1C A111G: 0.01.
The same measure for A5G A24U: 0.83.
With A129G the figure was 0.93.
As to A86U U102A, the self-cleavage turned out to be 1.36.
The same measure for U19C A62G: 0.83; for A78G A94G: 0.19.
The same measure for U19G A33G: 0.96; for U19A A56G: 1.6; for A18C A22G: 1.85.
With G41U U122C the figure was 1.34; with A56G A125U, 1.32; with U72C A98U, 0.3.
Regarding A51G U127A, the self-cleavage was 2.09.
Consider U57C U122A, for which the self-cleavage came out at 1.35.
With A51G U122A the figure was 1.85; with U26A U72A, 0.28.
On to A96U U132C, for which the self-cleavage was 1.95.
With A52G G123A the figure was 0.48; with A13G A110G, 0.13; with C112U A129G, 0.01.
A22U A66G: the self-cleavage came out at 1.5.
With A95G A96C the figure was 0.77; with A98G A117U, 0.3; with A56G U100C, 2.18.
With U38C U124C the figure was 1.21.
The same measure for A55G U72C: 0.28; for A52C A68G: 0.55; for G8U A23G: 1.93.
Take C25G A30G: the self-cleavage was 0.59.
With A63G G83A the figure was 1.84.
For the variant A114G A135G, the self-cleavage is 0.93.
Consider A22U U87A, for which the self-cleavage turned out to be 1.53.
The same measure for U12A A59G: 1.26; for G74U A114U: 0.04.
The same measure for A89U A117U: 0.7.
The same measure for A90G G138U: 1.3.
Regarding A33G A91G, the self-cleavage amounted to 0.29.
With U103C G106A the figure was 0.02; with U38G A62G, 1.59.
On to A51G A68U, for which the self-cleavage is 1.9.
With A110G A117U the figure was 0.06; with A129G A135G, 1.08.
The same measure for U49G A118G: 1.14; for U2C A59G: 0.91; for U102G U133A: 1.45.
The same measure for U57G U87A: 1.47; for U2C U19C: 0.96; for A36C U49C: 1.28.
Turning to U87A A126G, the self-cleavage worked out at 1.66.
With C6U A94G the figure was 1.68.
For A68U A90G, the self-cleavage was determined as 1.18.
C113U: the self-cleavage is 0.08.
The same measure for A89G U132C: 1.4; for A63U G99U: 1.03.
Regarding A63U U70C, the self-cleavage was 1.68.
With A47G U102C the figure was 1.25.
In the case of A30U A68U, the self-cleavage stood at 1.5.
With U38C A92U, the self-cleavage was determined as 1.63.
The same measure for A67G G137U: 2.03; for G80A U108C: 0.01; for A5U U37G: 1.
The same measure for A4U A24G: 0.76.
The same measure for A36U U72C: 0.32; for C77U: 1.54.
As for U43C U57G, the self-cleavage amounted to 0.87.
The same measure for U2A A114U: 0.33.
With A63G U127A the figure was 1.47; with A22G U100A, 0.54; with C88A U130C, 1.42.
G79C: the self-cleavage was 0.08.
Turning to U19A A33G, the self-cleavage came to 0.62.
With U139A the figure was 0.59; with U39A U100C, 2.25; with A118U U139A, 0.6.
The same measure for G106U U127C: 0.01.
With A33U A59G the figure was 1.28.
In the case of U37C U108A, the self-cleavage turned out to be 0.04.
The same measure for A96G A110G: 0.12.
With A18U U120C the figure was 1.1.
With A4G U124A the figure was 0.48; with A22G A111U, 0.04; with A92G A135G, 1.48.
With U38C G93U, the self-cleavage came out at 2.26.
Turning to A5G A66G, the self-cleavage was found to be 0.87.
The same measure for C25A U122C: 0.72; for A78C U87C: 0.27.
With U43C A47G the figure was 0.98; with A18G U97C, 1.42.
With U72C A95U the figure was 0.35; with U72C A95G, 0.35.
In the case of A52G U130C, the self-cleavage amounted to 0.75.
The same measure for U3C A36U: 1.33; for C6U A89G: 1.13; for A22G A82U: 0.36.
The same measure for A69C A114G: 0.21; for A68G A82G: 0.62.
With G83U U102C the figure was 0.35; with A23G C61A, 1.45; with U133C A135U, 1.71.
As for A36G A140G, the self-cleavage was found to be 1.31.
With A22G A33U the figure was 1.4; with A66U U120G, 1.14.
As for U57C U97A, the self-cleavage came to 1.32.
The same measure for A47U U72A: 0.13.
With A11G A33U the figure was 0.86; with A4G G41A, 1.43.
With A114G A116U the figure was 0.05; with U39C A47C, 1.63.
As to A23G A36C, the self-cleavage was determined as 1.41.
The same measure for A114C G137A: 0.07; for C34U U87C: 1.63; for A47G A59G: 0.86.
Turning to U3C C71A, the self-cleavage is 0.16.
The same measure for A59G C71A: 0.48; for A60U A82G: 0.66; for G44C A117G: 1.69.
The same measure for G28A U39C: 2.09; for A69G A86G: 1.24; for U70A A118G: 0.37.
With U87C U102A the figure was 0.83; with U38C A94U, 2.15.
For the variant A62G U122G, the self-cleavage worked out at 2.99.
The same measure for G83A U122C: 1.87.
With A13G A114G the figure was 0.31; with C61U A140G, 1.73.
With A82U A117U the figure was 0.23; with A60G C128U, 1.12; with A111U U139A, 0.16.
As to A36U U97A, the self-cleavage turned out to be 2.69.
The same measure for A22G A90G: 1.12; for A23G U108A: 0.02.
The same measure for U19C A66U: 0.38.
